One block for each molecule: values may come before it.
Experiments:
PMNs [1] = conditions: Kao et al., 1994; cited from earlier work
MPs = conditions: Kao et al., 1994; cited from earlier work
[2] = tested on: chick chorioallantoic membrane (CAM); assay: In vivo angiogenesis assay in chick chorioallantoic membrane (CAM); conditions: 250 ng TyrRS molecule or 25 ng VEGF165 on filter disk, 72 hours
Procedure: In vivo angiogenesis assays were conducted in chick chorioallantoic membrane (CAM) (Nicolaou et al., 1998, Bioorg. Med. Chem. 6:1185-208). Ten-day-old chick embryos were purchased from Mcintyre Poultry (Lakeside, Calif.) and were incubated at 37° C. and 70% humidity. A small hole was made with a small crafts drill (Dremel, Emerson Electric, Racine, Wis.) directly over the air sac at the end of the egg. The embryos were candled to determine a location to drill a second hole directly over embryonic blood vessels. […] A window was cut in the eggshell over the dropped CAM, exposing the CAM to direct access for experimental manipulation. Cortisone acetate-treated 5 mm filter disks were soaked with a particular protein sample (25 ng of VEGF165 or 250 ng of a given TyrRS molecule) and the filter disks added directly to the CAMs, which were relatively devoid of preexisting blood vessels. The windows were sealed with sterile tape and incubated at 37° C. […] After 72 hours, the CAM tissue associated with the filter disk was harvested and quantified using a stereomicroscope. Angiogenesis was assessed as the number of visible blood vessel branch points within the defined area of the filter disks. Each determination shown in FIG. 17 represents the mean from 5-8 embryos.

PMNs [3] = assay: 125I-human mini TyrRS binding and competition assay on PMNs; conditions: 10 nM 125I-mini TyrRS, 200-fold molar excess of unlabeled ligand, on ice 2 hours
Procedure: The interaction of human mini TyrRS and PMNs was examined in binding studies using radioiodinated TyrRS molecules (Moser et al., 1993, J. Biol. Chem. 268:7125-28). Custom radioiodination of mini TyrRS with was performed by Research & Diagnostic Antibody (Richmond, Calif.). In the binding assays, 2×10^6 PMNs were first suspended in 120 μl of RPMI-1640 medium containing 20 mM Hepes (pH 7.4) and 10 mg/ml bovine serum albumin. […] Following incubation, cells were separated from unbound radioactivity by centrifugation at approximately 8000×g for 2 minutes through 500 μL, of a 10% sucrose/phosphate-buffered saline (PBS) cushion. The supernatant was aspirated, and the cell sediment was resuspended using EcoLite (ICN Biomedicals, Irvine, Calif.) and analyzed in a scintillation counter.
Following incubation, cells were separated from unbound radioactivity as described herein.

[4] = tested on: human umbilical vein endothelial cells (HUVECs); assay: HUVEC migration assay (modified Boyden chamber); format: cell-based; conditions: 50 nM TyrRS molecule or 0.5 nM VEGF165, 6 hours
Procedure: In contrast, α-chemokines lacking the ELR motif act as angiostatic factors (id.). In order to evaluate the angiogenic activity of TyrRS, which contains the ELR motif, human full-length TyrRS and human mini TyrRS were first examined for their ability to induce endothelial cell migration. Such angiogenic assays were performed using human umbilical vein endothelial cells (HUVECs) (Clonetics, Walkersville, Md.). Cells were maintained in EGM-2® BULLETKIT® medium (Clonetics) in an atmosphere of 6% CO2 at 37° C. according to the supplier's instructions.
Cell migration assays were performed using the modified Boyden chamber (6.5 mm Transwells) with polycarbonate membranes (8.0 μm pore size) (Costar Corp., Cambridge, Mass.) (Masood et al., 1999, Blood 93:1038-44). Wells were coated overnight with 25 μg/mL human fibronectin (Biosource International, Camarillo, Calif.) in PBS and then allowed to air-dry. HUVECs were suspended in Dulbecco's modified Eagle's medium (DMEM) (Gibco-BRL, Gaithersburg, Md.) containing 0.1% BSA (Sigma) and 2×10^5 cells per well were added to the upper chamber. The chemotactic stimulus (50 nM of a given TyrRS molecule or 0.5 nM of human vascular endothelial growth factor-165 (VEGF165) (Biosource International, Camarillo, Calif.)) was placed in the lower chamber, and the cells were allowed to migrate for 6 hours at 37° C. in a 6% CO2 incubator. After incubation, non-migrant cells were removed from the upper face of the Transwell membrane with a cotton swab and migrant cells, those attached to the lower face, were fixed in methanol and visualized with the HEMACOLOR® stain set (EM Diagnostic Systems, Gibbstown, N.J.). Migrating cells were counted in high-power fields (HPFs). HUVECs were suspended in media with the inhibitor for 30 minutes before placement in the chamber. Each determination shown in FIG. 16 represents the average of nine HPF measurements.

PMNs [5] = assay: PMN chemotaxis assay (ChemoTX microchemotaxis chamber); format: cell-based, human; conditions: sample proteins 1 nM, 45 min
Procedure: Cells for the various cytokine assays described were prepared from acid citrate dextrose-treated blood of normal healthy volunteers. Human PMNs were isolated from the blood by centrifugation (700×g) over Histopaque 1077 and 1119 (Sigma). […] This procedure was repeated twice. Human MPs were isolated by centrifugation on Histopaque 1077 (Sigma). The mononuclear fraction was obtained, washed twice in Hanks' balanced salt solution, resuspended in RPMI-1640 medium (Sigma) containing 10% heat-inactivated fetal bovine serum (Sigma), plated in tissue culture flasks, and incubated in a 6% CO2 incubator at 37° C. for 1-2 hours (Kumagai et al., 1979, J. Immunol. Methods 29:17-25). Nonadherent cells were removed by washing the flasks three times with Hanks' balanced salt solution, and adherent cells were harvested by incubation with calcium-magnesium free phosphate-buffered saline containing 2 mM EDTA for 15 minutes at 4° C., followed by extensive washing.
PMN chemotaxis assays were performed in a ChemoTX microchemotaxis chamber (described herein). Sample proteins (1 nM) were added to the lower compartment of chemotaxis chambers, and 10^4 PMNs were added to the upper compartment. Chambers were incubated for 45 min, and migrating cells were counted in HPFs. Each determination shown in FIG. 2 represents the average of nine HPF measurements.

Molecule: R-I-G-R-I-I-T (RIGRIIT; listed as Homo sapiens) [synthetic peptide of seven residues near the amino-terminus of human mature EMAP II, Cys replaced by Arg]
PMN migration induced by synthetic peptide (literature) (PMNs [1]): can induce PMN or MP migration | MP migration induced by synthetic peptide (literature) (MPs): can induce PMN or MP migration

inhibition of 125I-mini TyrRS binding to PMNs by unlabeled ligand (PMNs [3]): did not inhibit the binding
B1: mini TyrRS mutant: mini TyrRS in which the ELR motif was mutated to ELQ (Glu-Leu-Gln) (protein)
chain: MGDAPSPEEKLHLITRNLQEVLGEEKLKEILKERELKIYWGTATTGKPHVAYFVPMSKIADFLKAGCEVTILFADLHAYLDNMKAPWELLELQVSYYENVIKAMLESIGVPLEKLKFIKGTDYQLSKEYTLDVYRLSSVVTQHDSKKAGAEVVKQVEHPLLSGLLYPGLQALDEEYLKVDAQFGGIDQRKIFTFAEKYLPALGYSKRVHLMNPMVPGLTGSKMSSSEEESKIDLLDRKEDVKKKLKKAFCEPGNVENNGVLSFIKHVLFPLKSEFVILRDEKWGGNKTYTAYVDLEKDFAAEVVHPGDLKNSVEVALNKLLDPIREKFNTPALKKLASAAYPDPSKQKPMAKGPAKNSEPEEVILEHHHHHH
modifications: His6 tag; Human mini TyrRS mutant in pET20B
in vivo angiogenesis in chick CAM (blood vessel branch points) [2]: failed to induce in vivo angiogenesis | HUVEC chemotaxis [4]: no chemotaxis was observed | PMN chemotaxis (PMN migration) (PMNs [5]): did not induce PMN migration
